The values that follow come from the nanobody polyreactivity screen of Harvey et al. (2022).

A short description of this series: yeast display, Sf9 membrane polyspecificity reagent, FACS + sequencing; frameworks hold sequencing errors. Summed up:
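Sorting gates, low and high (top ~1%), were placed on anti-HA fluorescence to track expression and on streptavidin fluorescence to track reagent binding. A clone's polyreactivity label is taken from the gate it came out of. The reagent was 10% biotinylated, detergent-solubilized Sf9 membrane, applied for 1 hour at 4 °C to galactose-induced yeast display cells.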
With “QVQLVESGGGLVQAGGSLRLSCAASGRTFGGYAMGWYRQAPGKERELVAAISRSGGSTRYADSVKGRFTISRDNAKNTVYLQMNSLKPEDTAVYYCAARQKYEILMEYWGQGTQVTVSS”, the “polyreactivity (PSR sort gate)” value is listed as “high polyreactivity”.
Regarding “QVQLVESGGGLVQAGGSLRLSCAASGRTFGGYVMGWYIQAPGKERELVASISSSAGSTYYADSVKGRFTISRDNAKNTVYLQMNSLKTEDTAVYYCAKRSYNPYYRYYRYPYGYWGQGTQVTVSS”, the “polyreactivity (PSR sort gate)” value was “high polyreactivity”.
With “QVQLVESGGGLVQAGGSLRLSCAASGRTFGHNAMGWYRQAPGKEREFVAAITYSGVRTFYADSVKGRFTISRDNAKNTVYLQMNSLKPEDTSVYYCATDWRRDYDYWGQGTQVTVSS” the entry was “low polyreactivity”; with “QVQLVESGGGLVQAGGSLRLSCAASGRTFGHYAMGLYRQAPGKERELVADITRRGGSTSYADSVKGRFTISRDNAKNTVYLQMNSLKPEDTAVYYCNKAADGSSHYDYWGQGTQVTVSS”, “low polyreactivity”.
“QVQLVESGGGLVQAGGSLRLSCAASGRTFGHYAMGWYRQAPGKERELVAAITYSGGSTYADSVKGRFTISRDNAKNTVYLQMNSLKPEDTAVYYCNKRQKGYTRSYRYIVWYDYWGQGTQVTVSS”: the “polyreactivity (PSR sort gate)” value is given as “high polyreactivity”.
With “QVQLVESGGGLVQAGGSLRLSCAASGRTFGINAMGWYRQAPGKERELVAVISFGDGGTYYADSVKGRFTISRDNAKNTVYLQMNSLKPEDSAVYYCAAEVVAQMNYWGQGTQVTVSS” the entry was “low polyreactivity”; with “QVQLVESGGGLVQAGGSLRLSCAASGRTFGIYAMGWYRQAPGKERELVAAISCGGGSTYYADSVKGRFTISRDNAKNTVYLQMNSLKPEYTAVYYCAAQAQWDGQMDYWGQGTQVTVSS”, “low polyreactivity”.
Take “QVQLVESGGGLVQAGGSLRLSCAASGRTFGKNAMGWYRQAPGKERELVAAISTSGGRTYYADSVMGRFTISRDNAKNTVYLQMNSLIPEDPAVYYCAAVLYDTRPVYGCESWGQGTQVTVSS”: the “polyreactivity (PSR sort gate)” value is given as “high polyreactivity”.
Then “QVQLVESGGGLVQAGGSLRLSCAASGRTFGKYARGWYRQAPGKERELVASITFSSGSTYYADSVKGRFTISRDNAKNTVYLQMNSLKPEDTAVYYCAKRGWGIYDYWGQGTQVTVSS”, with “low polyreactivity”; and “QVQLVESGGGLVQAGGSLRLSCAASGRTFGLNGMGWYRQAPGKEREFVATITGSGTSTYYADSVKGRFTISRDNAKNTVYLQMNSLKPEDTAVYYCAALSGLWGYHYYHEYYYWGQGTQVTVSS”, with “low polyreactivity”; and “QVQLVESGGGLVQAGGSLRLSCAASGRTFGLYAMGWYRPAPGKERELVADINGSGTRTYYADSVKGRFTISRDYAKNTVYLQMNSLKPEDTAVYYCYGRYHWLYYWGQGTQVTVSS”, with “high polyreactivity”.
With “QVQLVESGGGLVQAGGSLRLSCAASGRTFGLYAMGWYRQAPGKERELVAAIDQSTGSTYYADSVKGRFTISRDNAKNTVYLQMNRLKPEDTAVYYCAAEEASTVRYYWYDYWGQGTQVTVSS” the entry was “high polyreactivity”; with “QVQLVESGGGLVQAGGSLRLSCAASGRTFGLYAMGWYRQAPGKERELVAAISWGGGRTYYADSVKGRFTISRDNAKNTVYLQMNSLKPEDNAVYYCNAVYSPRYYVGGYDYWGQGTQVTVSS”, “high polyreactivity”; with “QVQLVESGGGLVQAGGSLRLSCAASGRTFGNNAMGWYRQAPGKERELVAAITGSGGSTYYADSVKGRFTISRDNAKNTVYLQMNSLKPEDTAVYYCAAVVYGAVRGSRYPYYYWGQGTQVTVSS”, “high polyreactivity”.
Turning to “QVQLVESGGGLVQAGGSLRLSCAASGRTFGNYAMGWYRQAPGKERELVADITRRGGSTSYADSVKGRFTISRDNAKNTVYLQMNSLKPEDTAVYYCNADSYLPAIRYDYWGQGTQVTVSS”, the “polyreactivity (PSR sort gate)” value is recorded as “low polyreactivity”.
Then “QVQLVESGGGLVQAGGSLRLSCAASGRTFGPNAMGWYRQAPGKERELVAVISGSTGSTYYADSVKGRFTISRDNAKNTVYLEMNSLKPEDTAVYYCAAKSEFYDWYRSYQYEYYYWGQGTQVTVSS”, with “high polyreactivity”.
